According to US20100254993A1 (Novartis, published 2010):
Blank lines part the entries; values can stand above or below the binder they belong to.

Legend:
[1] = target: T1, recombinant human interleukin-4 (human, UniProt P05112 25-153); assay: SPR (BIAcore 2000), mAb captured on anti-human IgG CM-5 chip, rhIL-4 as analyte
T1 construct: Recombinant human IL-4 applied in solution over antibody captured by anti-human IgG (BIAcore); also called rhIL-4; human IL-4
T1 sequence (looked up): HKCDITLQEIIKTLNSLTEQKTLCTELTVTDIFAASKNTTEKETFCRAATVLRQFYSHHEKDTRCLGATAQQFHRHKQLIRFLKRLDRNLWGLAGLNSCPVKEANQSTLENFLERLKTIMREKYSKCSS
Method: Affinity measurements of human mAbs of the present invention are carried on a BIAcore™ 2000 instrument. […] A subsequent application of rhIL-4 results in a further change of the refractory properties, which allows determination of the association rate (Kₒₙ, on rate) as well as the dissociation rate (Koff, off rate) and the […] of these two, the affinity (Kd, dissociation constant, given in pM), according to the BIAevaluation 3.0 software.

[2] = target: T1, recombinant human interleukin-4; assay: cell-based or functional assay

B1: Example 3 antibody comprising SEQ ID NO:17 and SEQ ID NO:18 (antibody, human IgG1, V domains shown)
VH: QVQLVESGGGMVQPGRSLRLSCAASGFTLSSYGMHWVRQAPGKGLEWVTVIWYDGNNQYYADSVKGRFTISRDNSKNTLYLQMNSLRAEDTAVYYCAREGSWSPDIFDIWGQGTMVTVSS
VL: AIQLTQSPSSLSASVGDRVTITCRASQGISSYLAWYQQKPGKAPKLLIYDASSLESGVPSRFSGSGSGTDFTLTISSLQPEDFATYYCQQFNSYPITFGQGTRLEIKR
notes: also called Ex. 3
Kd [1]: 0.089 nM
BAF cell proliferation IC50 [2]: 0.084 nM
IL-4 induced CD23 IC50 [2]: 0.873 nM
IL-4 induced IgE IC50 [2]: 7.81 nM

B3: Example 1 antibody comprising SEQ ID NO:1 and SEQ ID NO:2 (human IL-4 specific monoclonal antibody) (antibody, human IgG1, V domains shown)
VH: QVQLVESGGGVVQPGRSLRLSCAASGFTFSSYAMHWVRQAPGKGLEWVTFIWDDGSFKYYAESVKGRFTISRDNSKNTLYLQMNSLRAEDTAVYYCAREGSWSPDIFDIWGQGTMVTVSS
VL: AIQLTQSPSSLSASVGDRVTITCRASQGISRALAWYQQKPGKAPKLLIYDASSLESGVPSRFSGSGSGTDFTLTISSLQPEDFATYYCQQFNSYPITFGQGTRLEIKR
notes: also called Ex. 1; mAb as defined by CDRs as described in claim 2a)
Kd [1]: 0.043 nM
BAF cell proliferation IC50 [2]: 0.03 nM
IL-4 induced CD23 IC50 [2]: 0.334 nM
IL-4 induced IgE IC50 [2]: 2.81 nM

B4: Example 2 antibody comprising SEQ ID NO:9 and SEQ ID NO:10 (antibody, human IgG1, V domains shown)
VH: QVQLVESGGGVVQPGRSLRLSCAASGFTLSSFGMHWVRQAPGKGLEWVAVIWYDGSNEYYADSVKGRFTTSRDNSKNTLYLQMNSLRAEDTAVYYCAREGSWSPDIFDIWGQGTMVTVSS
VL: AIQLTQSPSSLSASVGDRVTITCRTSQGIRSALAWYQQNPGKAPKLLIYDASSLESGVPSRFSGSGSGTDFTLTISSLQPEDFATYYCQQFNSYPVTFGQGTRLEIKR
notes: also called Ex. 2
Kd [1]: 0.059 nM
BAF cell proliferation IC50 [2]: 0.05 nM
IL-4 induced CD23 IC50 [2]: 0.463 nM
IL-4 induced IgE IC50 [2]: 5.34 nM

The next lines start with the values.

Kd [1]: 0.084 nM
BAF cell proliferation IC50 [2]: 0.218 nM
IL-4 induced CD23 IC50 [2]: 2.83 nM
IL-4 induced IgE IC50 [2]: 9.94 nM
B2: Example 5 antibody comprising SEQ ID NO:33 and SEQ ID NO:34 (antibody, human IgG1, V domains shown)
VH: QVQLVESGGGVVQPGRSLRLSCAASGFTFSCCGMHWVRQAPGKGLEWVAVIWYDGSNKYYADSVKGRFTISRDTSKNTLYLQMNSLRAEDTAVYYCATDSSGSFYEYFQHWGQGTLVTVSS
VL: AIQLTQSPSSLSASVGDRVTITCRASQGINSALAWYQQKPGKAPKLLIYDASSLESGVPSRFSGSGSGTDFTLTISSLQPEDFATYYCQQFNSYPYTFGQGTKLEIKR
notes: also called Ex. 5

Kd [1]: 0.066 nM
BAF cell proliferation IC50 [2]: 0.688 nM
IL-4 induced CD23 IC50 [2]: 0.848 nM
IL-4 induced IgE IC50 [2]: 7.57 nM
B5: Example 4 antibody comprising SEQ ID NO:25 and SEQ ID NO:26 (antibody, human IgG1, V domains shown)
VH: QVQLVQSGAEVKKPGSSVKVSCKASGDTFSSYAISWVRQAPGQGFEWMGGIIPVIGTVNYEERFQDRVTITADNSTSTAYMELTSLRSEDTAVYFCGREEGFLDYWGQGTLVTVSS
VL: AIQLTQSPSSLSASVGDRVTITCRASQGISSALAWYQQKPGKAPKLLIYDASSLESGVPSRFSGSGSGTDFTLTISSLQPEDFATYYCQQFNSYPLLTFGGGTKVEIKR
notes: also called Ex. 4
